# Measurements reported in IntAct's records for PubMed 21317894.
# B1: Complement factor H (Homo sapiens), P08603 (parent)
# chain: MRLLAKIICLMLWAICVAEDCNELPPRRNTEILTGSWSDQTYPEGTQAIYKCRPGYRSLGNVIMVCRKGEWVALNPLRKCQKRPCGHPGDTPFGTFTLTGGNVFEYGVKAVYTCNEGYQLLGEINYRECDTDGWTNDIPICEVVKCLPVTAPENGKIVSSAMEPDREYHFGQAVRFVCNSGYKIEGDEEMHCSDDGFWSKEKPKCVEISCKSPDVINGSPISQKIIYKENERFQYKCNMGYEYSERGDAVCTESGWRPLPSCEEKSCDNPYIPNGDYSPLRIKHRTGDEITYQCRNGFYPATRGNTAKCTSTGWIPAPRCTLKPCDYPDIKHGGLYHENMRRPYFPVAVGKYYSYYCDEHFETPSGSYWDHIHCTQDGWSPAVPCLRKCYFPYLENGYNQNYGRKFVQGKSIDVACHPGYALPKAQTTVTCMENGWSPTPRCIRVKTCSKSSIDIENGFISESQYTYALKEKAKYQCKLGYVTADGETSGSITCGKDGWSAQPTCIKSCDIPVFMNARTKNDFTWFKLNDTLDYECHDGYESNTGSTTGSIVCGYNGWSDLPICYERECELPKIDVHLVPDRKKDQYKVGEVLKFSCKPGFTIVGPNSVQCYHFGLSPDLPICKEQVQSCGPPPELLNGNVKEKTKEEYGHSEVVEYYCNPRFLMKGPNKIQCVDGEWTTLPVCIVEESTCGDIPELEHGWAQLSSPPYYYGDSVEFNCSESFTMIGHRSITCIHGVWTQLPQCVAIDKLKKCKSSNLIILEEHLKNKKEFDHNSNIRYRCRGKEGWIHTVCINGRWDPEVNCSMAQIQLCPPPPQIPNSHNMTTTLNYRDGEKVSVLCQENYLIQEGEEITCKDGRWQSIPLCVEKIPCSQPPQIEHGTINSSRSSQESYAHGTKLSYTCEGGFRISEENETTCYMGKWSSPPQCEGLPCKSPPEISHGVVAHMSDSYQYGEEVTYKCFEGFGIDGPAIAKCLGEKWSHPPSCIKTDCLSLPSFENAIPMGEKKDVYKAGEQVTYTCATYYKMDGASNVTCINSRWTGRPTCRDTSCVNPPTVQNAYIVSRQMSKYPSGERVRYQCRSPYEMFGDEEVMCLNGNWTEPPQCKDSTGKCGPPPPIDNGDITSFPLSVYAPASSVEYQCQNLYQLEGNKRITCRNGQWSEPPKCLHPCVISREIMENYNIALRWTAKQKLYSRTGESVEFVCKRGYRLSSRSHTLRTTCWDGKLEYPTCAKR
# Variants of: B1
# Conditions: with co3_human C3, P01024
# Sequence of co3_human C3, P01024 (P01024 whole entry): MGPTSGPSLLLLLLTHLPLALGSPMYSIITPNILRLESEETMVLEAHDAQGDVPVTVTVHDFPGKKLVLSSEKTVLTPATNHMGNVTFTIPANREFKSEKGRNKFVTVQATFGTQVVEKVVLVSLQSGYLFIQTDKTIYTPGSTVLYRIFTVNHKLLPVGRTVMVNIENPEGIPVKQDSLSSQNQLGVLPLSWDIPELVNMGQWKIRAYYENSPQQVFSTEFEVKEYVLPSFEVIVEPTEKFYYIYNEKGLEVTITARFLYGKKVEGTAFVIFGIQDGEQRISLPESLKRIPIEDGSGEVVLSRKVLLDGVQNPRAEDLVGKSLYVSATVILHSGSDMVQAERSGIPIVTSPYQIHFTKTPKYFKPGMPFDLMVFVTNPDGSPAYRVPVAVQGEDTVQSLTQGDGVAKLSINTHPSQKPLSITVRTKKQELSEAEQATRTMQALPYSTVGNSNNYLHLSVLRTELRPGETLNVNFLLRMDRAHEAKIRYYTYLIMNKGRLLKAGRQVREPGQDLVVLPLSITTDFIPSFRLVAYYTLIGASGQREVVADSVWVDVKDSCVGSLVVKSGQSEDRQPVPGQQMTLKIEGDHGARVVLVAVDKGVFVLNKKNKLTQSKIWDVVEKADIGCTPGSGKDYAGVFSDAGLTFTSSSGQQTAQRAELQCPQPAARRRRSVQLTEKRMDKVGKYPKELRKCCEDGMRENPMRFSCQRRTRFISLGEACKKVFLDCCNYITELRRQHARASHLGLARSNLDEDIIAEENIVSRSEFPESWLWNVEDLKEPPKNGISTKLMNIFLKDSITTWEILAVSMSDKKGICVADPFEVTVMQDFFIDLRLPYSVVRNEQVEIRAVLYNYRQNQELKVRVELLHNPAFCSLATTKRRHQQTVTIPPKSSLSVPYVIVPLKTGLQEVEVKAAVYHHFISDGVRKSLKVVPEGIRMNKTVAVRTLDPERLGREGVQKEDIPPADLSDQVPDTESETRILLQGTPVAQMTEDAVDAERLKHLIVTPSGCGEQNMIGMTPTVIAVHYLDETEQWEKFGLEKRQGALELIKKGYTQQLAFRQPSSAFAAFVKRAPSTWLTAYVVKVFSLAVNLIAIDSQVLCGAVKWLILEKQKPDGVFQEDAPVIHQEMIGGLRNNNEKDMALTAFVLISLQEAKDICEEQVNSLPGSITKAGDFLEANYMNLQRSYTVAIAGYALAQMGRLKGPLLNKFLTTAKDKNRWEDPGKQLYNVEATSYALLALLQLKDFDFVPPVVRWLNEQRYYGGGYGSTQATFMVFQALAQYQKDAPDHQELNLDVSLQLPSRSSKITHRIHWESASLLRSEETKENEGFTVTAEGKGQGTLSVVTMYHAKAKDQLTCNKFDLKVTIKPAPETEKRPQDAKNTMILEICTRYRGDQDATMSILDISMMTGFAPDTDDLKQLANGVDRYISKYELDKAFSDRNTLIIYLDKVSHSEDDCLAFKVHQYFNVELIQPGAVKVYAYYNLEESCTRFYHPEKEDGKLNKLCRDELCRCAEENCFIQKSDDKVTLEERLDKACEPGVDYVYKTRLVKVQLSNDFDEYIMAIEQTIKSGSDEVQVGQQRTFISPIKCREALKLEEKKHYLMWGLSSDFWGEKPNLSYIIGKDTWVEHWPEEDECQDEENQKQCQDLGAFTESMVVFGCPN
row,effect of a mutation on the interaction,Variant
1,decreasing interaction,R1203S
2,decreasing interaction,R1215Q
3,disrupting interaction,D1119G
4,decreasing interaction,R1182S
